Experimental data published in article PMC9915769, “A novel binding site on the cryptic intervening domain is a motif-dependent regulator of O-GlcNAc transferase” (Research Square, 2023).
Non-standard residues stand in square brackets, D forms with d. No end group written: not given here. pY = N[C@@H](Cc1ccc(OP(=O)(O)O)cc1)C(=O)O

What was measured:
OGT N791A = assay: Saturation FP binding assay, OGT mutant N791A; set-up: species or system Human; settings: 5-FAM-SMG9 0.4 μM stock mixed 1:1, TBS pH 8.0, n=3
Description: (§1) To confirm the SMG9 peptide binding mode in our crystal structure, we mutated each of the two primary binding features: the hydrophobic pocket (F723, I734, and I787) and the bidentate donor N791, and measured their changes in binding affinity for SMG9 peptide. Each of the hydrophobic OGT residues were mutated to a glutamate or arginine, while the asparagine bidentate interaction was disrupted by mutation to alanine. Each mutated OGT construct was recombinantly expressed in E coli and purified at high concentration for FP saturation binding assays with fluorescent SMG9 peptide. Insertion of charged residues into the hydrophobic pocket (F723E, I734R, I787E, and I787R) as well as disruption of the bidentate backbone interaction (N791 A) each shifted EC50 values by >10-fold (Fig. 2d, Extended data Fig. 3a), showing that these mutations substantially disrupt SMG9 peptide binding.
(§2) All FP measurements were carried out in black small volume 384-well plates (Greiner Bio-One). For saturation binding assays, 2-fold serial dilutions of recombinantly purified OGT were prepared in TBS (150 mM NaCl, 20 mM Tris-HCl, pH 8.0). 5-FAM-SMG9 fluorescent peptide at 0.4 μM in TBS was added in equal volume to the OGT dilution series. […] After 20 min incubation in the dark at room temperature, FP was read on a BMG PheraStar multimode plate reader equipt with 488, 520, 520 FP filter cube (BMG Labtech).

OGT I734R = assay: Saturation FP binding assay, OGT mutant I734R; set-up: species or system Human; settings: 5-FAM-SMG9 0.4 μM stock mixed 1:1, TBS pH 8.0, n=3
Description: as §1, §2

OGT I787E = assay: Saturation FP binding assay, OGT mutant I787E; set-up: species or system Human; settings: 5-FAM-SMG9 0.4 μM stock mixed 1:1, TBS pH 8.0, n=3
Description: as §1, §2

OGT I787R = assay: Saturation FP binding assay, OGT mutant I787R; set-up: species or system Human; settings: 5-FAM-SMG9 0.4 μM stock mixed 1:1, TBS pH 8.0, n=3
Description: as §1, §2

OGT F723E = assay: Saturation FP binding assay, OGT mutant F723E; set-up: species or system Human; settings: 5-FAM-SMG9 0.4 μM stock mixed 1:1, TBS pH 8.0, n=3
Description: as §1, §2

[1] = molecular target: fluorescently labeled 5-FAM-SMG9 peptide (human) (UniProt Q9H0W8); assay: fluorescence polarisation; saturation: 2-fold serial dilutions of OGT (WT or mutant) plus equal volume of 0.4 uM 5-FAM-SMG9; TBS (150 mM NaCl, 20 mM Tris-HCl, pH 8.0); 20 min, room temperature
OGT = molecular target: T1, OGT (Homo sapiens, UniProt O15294); assay: Competitive fluorescence polarization (FP) binding assay with 5-FAM-SMG9 peptide; settings: FP competition with 5-FAM-SMG9 for OGT binding, TBS pH 8.0, n=3
T1 construct: two OGT constructs, full-length OGT (OGT) and the protein crystallization construct OGT4.5; His6 (N); made in house; host or cells: E. coli BL21(DE3)
T1 sequence (O15294 1-1046): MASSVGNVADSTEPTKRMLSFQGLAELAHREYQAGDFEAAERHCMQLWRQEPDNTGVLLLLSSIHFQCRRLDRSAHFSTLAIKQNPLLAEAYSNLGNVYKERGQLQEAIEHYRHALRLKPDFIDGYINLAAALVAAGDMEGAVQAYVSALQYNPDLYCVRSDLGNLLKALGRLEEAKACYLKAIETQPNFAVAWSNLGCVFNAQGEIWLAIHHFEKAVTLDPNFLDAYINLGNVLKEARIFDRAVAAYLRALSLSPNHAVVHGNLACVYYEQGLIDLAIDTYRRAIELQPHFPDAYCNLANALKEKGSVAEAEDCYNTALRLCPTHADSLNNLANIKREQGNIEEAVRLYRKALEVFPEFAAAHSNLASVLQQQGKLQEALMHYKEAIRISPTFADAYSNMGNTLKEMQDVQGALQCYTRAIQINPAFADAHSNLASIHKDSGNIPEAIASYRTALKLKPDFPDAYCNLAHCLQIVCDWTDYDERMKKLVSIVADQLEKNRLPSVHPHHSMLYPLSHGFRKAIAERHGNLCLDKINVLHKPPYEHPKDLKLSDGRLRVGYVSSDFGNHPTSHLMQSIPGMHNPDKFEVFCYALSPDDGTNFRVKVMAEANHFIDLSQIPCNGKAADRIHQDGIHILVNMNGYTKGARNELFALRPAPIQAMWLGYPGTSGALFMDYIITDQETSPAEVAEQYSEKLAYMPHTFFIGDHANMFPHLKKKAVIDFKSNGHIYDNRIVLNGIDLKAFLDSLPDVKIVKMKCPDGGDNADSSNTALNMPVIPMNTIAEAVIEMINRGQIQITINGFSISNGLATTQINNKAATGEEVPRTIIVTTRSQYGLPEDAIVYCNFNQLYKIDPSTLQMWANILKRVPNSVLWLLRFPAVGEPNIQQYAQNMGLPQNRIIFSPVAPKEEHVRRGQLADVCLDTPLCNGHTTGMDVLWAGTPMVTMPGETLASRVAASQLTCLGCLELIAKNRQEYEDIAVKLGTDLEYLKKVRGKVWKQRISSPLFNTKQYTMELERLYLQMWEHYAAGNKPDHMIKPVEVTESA
Method: All FP measurements were carried out in black small volume 384-well plates (Greiner Bio-One). For saturation binding assays, 2-fold serial dilutions of recombinantly purified OGT were prepared in TBS (150 mM NaCl, 20 mM Tris-HCl, pH 8.0). 5-FAM-SMG9 fluorescent peptide at 0.4 μM in TBS was added in equal volume to the OGT dilution series. For competition binding assays, 2-fold serial dilutions of unlabeled peptide were prepared in TBS. An equal volume of 20 μM OGT with 0.4 μM 5-FAM-SMG9 in TBS was added to the dilution series. After 20 min incubation in the dark at room temperature, FP was read on a BMG PheraStar multimode plate reader equipt with 488, 520, 520 FP filter cube (BMG Labtech).

[2] = molecular target: T2, full-length O-GlcNAc transferase (OGT), recombinant (human, UniProt O15294-3 1-1036); assay: MST
T2 chain: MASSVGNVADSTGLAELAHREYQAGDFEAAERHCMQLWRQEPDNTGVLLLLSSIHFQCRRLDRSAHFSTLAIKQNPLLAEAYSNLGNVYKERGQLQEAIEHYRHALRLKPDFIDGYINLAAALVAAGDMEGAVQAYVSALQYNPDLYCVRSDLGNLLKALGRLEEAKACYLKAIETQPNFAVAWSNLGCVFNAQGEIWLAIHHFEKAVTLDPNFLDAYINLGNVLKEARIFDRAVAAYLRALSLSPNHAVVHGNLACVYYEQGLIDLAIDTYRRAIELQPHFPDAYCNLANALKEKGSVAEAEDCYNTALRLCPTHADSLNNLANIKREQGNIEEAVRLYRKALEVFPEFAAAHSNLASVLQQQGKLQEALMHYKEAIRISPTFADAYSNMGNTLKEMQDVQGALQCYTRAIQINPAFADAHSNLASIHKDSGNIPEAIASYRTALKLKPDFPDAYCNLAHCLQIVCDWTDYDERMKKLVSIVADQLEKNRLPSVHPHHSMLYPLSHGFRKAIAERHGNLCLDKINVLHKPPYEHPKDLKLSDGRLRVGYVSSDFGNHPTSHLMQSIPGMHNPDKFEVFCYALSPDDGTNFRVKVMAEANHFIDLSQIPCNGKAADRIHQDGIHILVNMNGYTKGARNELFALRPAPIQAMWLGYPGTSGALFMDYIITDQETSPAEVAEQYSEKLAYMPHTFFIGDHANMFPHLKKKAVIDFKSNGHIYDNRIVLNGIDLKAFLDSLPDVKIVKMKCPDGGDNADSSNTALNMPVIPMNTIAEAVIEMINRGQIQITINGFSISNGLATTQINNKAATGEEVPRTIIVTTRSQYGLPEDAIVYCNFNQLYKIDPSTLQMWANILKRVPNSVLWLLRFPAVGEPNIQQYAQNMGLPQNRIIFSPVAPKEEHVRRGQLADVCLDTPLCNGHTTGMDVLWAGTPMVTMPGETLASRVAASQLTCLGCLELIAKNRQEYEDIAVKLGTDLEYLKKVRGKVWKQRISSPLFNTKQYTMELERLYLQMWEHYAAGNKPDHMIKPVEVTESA

How did the “fold shift in EC50 relative to wild-type OGT” value (OGT N791A) turn out when “5-FAM-SMG9 peptide: fluorescently labeled 5-FAM SMG9 peptide, probe for MST and FP assays (QRPTQPVYQIQNRGMG; not fully specified (N-terminus); also: 5-FAM label, position not given here)” was run?
Its value is > 10 fold.

And the “fold shift in EC50 relative to wild-type OGT” value (OGT I734R)?
Its value is > 10 fold.

What about the “fold shift in EC50 relative to wild-type OGT” value (OGT I787E) of the same molecule?
Its value is > 10 fold.

What about the “fold shift in EC50 relative to wild-type OGT” value (OGT I787R) of the same molecule?
The value was > 10 fold.

And the “fold shift in EC50 relative to wild-type OGT” value (OGT F723E)?
Its value is > 10 fold.

Which fold shift in EC50 against wild-type OGT [1] does the source give for OGT F723E, recombinant (enzyme) here?
Its fold shift in EC50 against wild-type OGT is > 10 fold.

Which fold shift in EC50 against wild-type OGT [1] does the source give for OGT I734R, recombinant (enzyme) here?
Its fold shift in EC50 against wild-type OGT is > 10 fold.

How did the fold shift in EC50 against wild-type OGT [1] turn out when “OGT I787E, recombinant (from UniProt O15294-3 1-1036) (enzyme)” was run?
Its fold shift in EC50 against wild-type OGT is > 10 fold.

“OGT I787R, recombinant (from UniProt O15294-3 1-1036) (enzyme)” was tested. Which fold shift in EC50 against wild-type OGT [1] did it give?
The fold shift in EC50 against wild-type OGT was > 10 fold.

For OGT N791A, recombinant (enzyme), which fold shift in EC50 against wild-type OGT [1] is on record?
The fold shift in EC50 against wild-type OGT was > 10 fold.

For “SMG9 Y147F: SMG9 peptide with Y147F mutation (QRPTQPVFQIQNRGMG)”, which “fold shift in EC50 relative to WT SMG9 peptide” value (OGT) is on record?
The value was > 10 fold.

With “SMG9 pY147: phosphorylated SMG9 peptide (pY147) (QRPTQPV[pY]QIQNRGMG)” as the molecule, how does the “peptide binding to OGT (FP competition)” value (OGT) read?
Its value is “significantly disrupted peptide binding”.

B1: fluorescently labeled 5-FAM-SMG9 peptide (peptide, UniProt Q9H0W8 140-155, looked up)
peptide: QRPTQPVYQIQNRGMG
modifications: not fully specified (N-terminus); also: 5-FAM label, position not given here
notes: SMG9, human, 16-mer peptide with the PxYx[I/L] motif, residues 140-155 as stated for the SMG9 peptide; The limits 140-155 are printed for the SMG9 peptide of the crystal; the labelled peptide bears the same name; also called fluorescent SMG9 peptide; source: synthetic peptide (solid phase peptide synthesis, Ontores)
For B1, which Kd [2] is on record?
Its Kd is 13.1 µM.
